# Experiment: soluble on expression in E. coli; label from the status in PepcDB or PDB records
row,Sequence,soluble on expression in E. coli
1,MSNENHEELNDQLIVRREKVDTLREEGIDPFGEKFIRSISPEEIETKFADKSKEELEEAAIEVSVAGRIMTKRVKGKVGFTHIQDRFHQLQIYIRKDAIGEDAYAVFKLADLGDIIGIKGTIFRTNTGELSVKATEFTLLSKSLRPLPDKYHGLKDVEQRYRQRYLDLITNEESQNRFVMRSKILKYTRDYMDNQGFLEVETPVLHTIAGGAAAKPFITHHNALDMELYLRIALELHLKRLIVGGMDKVYEIGRVFRNEGTSTRHNPEFTMLESYAAYEDYEDVMDLVEGLVSTVCKQVNGTTEITYGEYKVDLTPNWRRIHMADAVKEYVGVDFWNVTSDEEARELAKKHDVPVTEHMTYGHILNEFFETYVEEKLIQPTFVYGHPVEISPLAKKNKEDERFTDRFELFIVGREHANAFSELNDPIDQRERFEAQMKEREQGNDEAHGMDADFLEALEYGLPPTGGLGIGIDRLVMLLTDAPSIRDILLFPTMKHRD,not soluble
2,GSHMLESSAEESLAYREDDLRGRLGKVITAVPVDGFGEVVIEGIGGTISKSAVSFDNQQISYGTTVLVVDINNGVLSVTPHEPI,soluble
3,NTDIRNIPVGVVDQSGSTAGRIITQSVKVTQVVDIKETYATAQEAEQAIQDGIVRAVLILPSDLTQRMMQGRELGQWIVDGSDTMISSAILSLQTMPLTDFDFEIRPAPSKTFEVALYYNPSRRSAVN,not soluble
4,SAENHCELLPPAPSGLGAGLGGGLCRRCSAGMGALAQRPGGVSKWVRLNVGGTYFLTTRQTLCRDPKSFLYRLCQADPDLDSDKDETGAYLIDRDPTYFGPVLNYLRHGKLVINKDLAEEGVLEEAEFYNITSLIKLVKDKIRERDSRISQMPVKHVYRVLQCQEEELTQMVSTMSDGWKFEQLVSIGSSYNYGNEDQAEFLCVVSKELHNTPYGTTSEPSEKAKILQERGSRM,soluble
5,AGSNGAQEKKYIVGFKQTMSTMSAAKKKDVISEKGGKVQKQFKYVDAASATLNEKAVKELKKDPSVAYVEEDHVAHAY,soluble
6,MEPLMNQSLHICGCCKRELPHEAFYTNKRTGTLDNYCKECRKANTRKRRDLRRCTSFENKPVSYPVITEVKDPALRMLLILHARQVVAESISRKQEKEKLNTLWEE,not soluble
7,MSKKPVALIILDGFALRDETYGNAVAQANKPNFDRYWNEYPHTTLKACGEAVGLPEGQMGNAEVGHLNIGAGRIVYQSLTRINIAIREGEFDRNETFLAAMNHVKQHGTSLHLFGLLSDGGVHSHIHHLYALLRLAAKEGVKRVYIHGFLDGRDVGPQTAPQYIKELQEKIKEYGVGEIATLSGRYYSMDRDKRWDRVEKAYRAMVYGEGPTYRDPLECIEDSYKHGIYDEFVLPSVIVREDGRPVATIQDNDAIIFYNFRPDRAIQISNTFTNEDFREFDRGPKHPKHLFFVCLTHFSETVAGYVAFKPTNLDNTIGEVLSQHGLRQLRIAETEKYPHVTFFMSGGREEEFPGEDRILINSPKVPTYDLKPEMSAYEVTDALLKEIEADKYDAIILNYANPDMVGHSGKLEPTIKAVEAVDECLGKVVDAILAKGGIAIITADHGNADEVLTPDGKPQTAHTTNPVPVIVTKKGIKLRDGGILGDLAPTMLDLLGLPQPKEMTGKSLIVK,soluble
8,MGSDKIHHHHHHMTKHPLKSLAASVRAAIADPARTTFVGSDANPRFELFHAASSLCSQKVRTVLFEKQLPYRSNDMKILSSMGPDGVVPAEHYHAPYVGLRLIAGEEIGREFVSGYSGRTSVQTEGFDPCVVPLLVDYEASRVIADSRRICCYLDAVSRNPVQLVPEDADARALVMQQVDIVDRIPNGTLLYGFHPDADLRPEALRTVMESVYDYKVAALKAMIDANADNAELVSAYRAKIAKEQGGKSVRHDAALQRAARDHVAVLLADLDRLLGTSSPYLLGPHFSLGDVLWGVNLTRLAYLGLASMWKDRPNVIRYVNALLTRPSLRKEAVRATMDSMPPSRYFDVVSGTAEVASM,not soluble
9,MQGQIIKALAGFYYVESDGQVYQTRARGNFRKKGHTPYVGDWVDFSAEENSEGYILKIHERKNSLVRPPIVNIDQAVVIMSVKEPDFNSNLLDRFLVLLEHKGIHPIVYISKMDLLEDRGELDFYQQTYGDIGYDFVTSKEELLSLLTGKVTVFMGQTGVGKSTLLNKIAPDLNLETGEISDSLGRGRHTTRAVSFYNLNGGKIADTPGFSSLDYEVSRAEDLNQAFPEIATVSRDCKFRTCTHTHEPSCAVKPAVEEGVIATFRFDNYLQFLSEIENRRETYKKVSKKIPK,not soluble
10,MSLEKLMALYNISSPSGKEGKIAGFIIGELRRMGIPFRQDRYGNIYAVKGNRESYPCVVAHMDEVHRRKTGSYAAHLVADSMIVGYDHKRKRMTGIGADDKNGIWICLKCLEDFKAVKCAFFVQEEIGCIGSGHADMSFFSDCRFVIQCDRKGNGDMVTQINGMRLCSNEFISAVDPRKYGYKPAQGLATDVAALKRNGLEVSCVNLSCGYYEPHTDNEYTVLADLCKCYRFVRHIICCHKEGHHHHHH,soluble
11,ILLPSKPRFIFQDVTVFNFNVSGNPSDLNTPVVQFNLSFRNPNANIRIYYDTLDVYAFYGNGSQQIIIPTPMPSTYQGHKEDSVWSPYIPVVPYNALYLDDQHHSRDGNMLMLHLDGRISWLLLGN,not soluble
12,VDLSDEEKDSIYMFASLVEKMKSRPLNEILEDSKLQNLAQRVFASKARLNYALNDKAQKYNTLIEMNGKISEIMNIYDRLLEQQLQSINLS,soluble
13,MGSDKIHHHHHHMKINRLTEIIVILLNKKLVTAKELADRFEVSTRTIYRDIETLSMSGVPVYMTKGKGGGISLIEEYSIDKAILSKKDKESLIVALKTLQATKYPEINSVVNKIGSIFGEQNFSNWIEIDFTEWGSNFNEDDKFTKIKEAILRRNTINFNYVNSLSSQTNRTVEPLKLMYKSKTWYLYGFCKLKDDFRIFRISRIRNLSIKDEVFSRKIIEEVCLNDSKVIKENTITLKLRFKEKMLFRVFDDFNKDLITKNEDDTYDVITEFPIGEWIYGYILSFGDNVEVLEPKDVRDNVITRLRELSKIYSL,not soluble
14,MSLTISILGARVIDPNSGLDQVTDLHLDGGRIVAIGAAPAGFSASRTIQADGLVAAPGLVDLGVSLREPGYSRKGNIASETRAAVAGGVTSLCCPPQTKPVLDTSAVAELILDRAREAANSKVYPVGALTKGLEGEQLAELVALRDTGCVAFGNGLKEIPNNRTLARALEYAATFDLTVVFHSQDRDLAQGGLAHEGAMASFLGLPGIPESAETVALARNLLLVEQSGVRAHFSQITSARGARLIAQAQALGLPVTADVALYQLILTDESLREFSSLYHVQPPLRTAADRDGLREAVKSGVIQAISSHHQPHERDAKLAPFGATEPGISSVELLLPLAMTLVQDGLLDLPTLLARLSSGPAAALRLPAGELKVGGAADLVLFDPQASTVAGEQWFSRGENCPFIGHCLPGAVRYTLVDGHICHEAEGHHHHHH,soluble
15,MAGDPMANITLSTQHYRIHRSDVEPVKEKTTDKDVFAKSITAVRNSFISLSTSLSDRFSLHLQTDIPTTHFHRGSASEGRAVLTSKTVKDFMLQKLNSLDIKGNASKDPAYARQTCEAMLSAVYSNNKDHCCKLLISKGVSITPFLKEIGEAAQNAGLPGEIKNGVFTPGGAGANPFVVPLIAAASIKYPHMFINHNQQVSFKAYAEKIVMKEVTPLFNKGTMPTPQQFQLTIENIANKYLQNASLEHHHHHH,not soluble
16,MGSDKIHHHHHHMEDNDWKLLKIIEISMKNHEWVPIQDLRRKTGFHEKEIVFRLGRLNKFKFTNKSNYGYRLSHWGYDALAMNAFIKKELIAGIGGKVGVGKEGDVYHVLLTNHREAVLKFHQLGRTCFSMGKRYREYLANKRHISWLYASRLTAAREFEVLNMLFPVVKVPEPIEQNRHAIIMGKLHGEELKRVNLLEINVDPEEFFWKLMVEVKKTYKLGIIHGDLSEFNILIDSEGDFVIIDWPQAIEVGKKGKLDKLPFEEVEYDEEFYLKRDIENVVRYFKKYGIDKDIDKLYNYVIGDITSENI,not soluble
17,MTQETFTATTRVKRGLADMLKGGVIMDVVTPEQARIAEDAGASAVMALERVPADIRAQGGVARMSDPDLIEGIVNAVSIPVMAKARIGHFVEAQILESLGVDFIDESEVLSPADYVNHIDKWNFDVPFVCGATNLGEALRRITEGAAMIRSKGEAGTGDVSEAVKHLRTIRGEINRLRSMDEDQLYVAAKEIQAPYDLVREVAATGKLPVTLFVAGGVATPADAALVMQMGAEGVFVGSGIFKSGNPAARAAAIVKATTMYDDPAAIAEVSRGLGEAMVGINVADVPAPHRLAERGW,not soluble
18,MAHHHHHHMMSFTANSGNSPMSQMSPLSQPYTSPQMLPQSSLRPTAPPFTLSGTEDQPTAGAPIRKGGTDPTRYKTTICRNWEMGSCSFKGCTFAHGEEELRMPPRVERYKSSGFDTRRSLTAETPPLYPLNPLPHSGVGRIEHLLNMLYSEVLRERNRFVAHEEANQALEALLKKEQMQREETEVQLEAARWKLEQLRTTVHEASVEINTLLASSPANEELRDRVAMVTQKIASVFSSEDTAVGGGREDEERVMKLLSSLQNCQSTEDM,not soluble
19,MKTIGLIGGMSWESTTSYYQLINETIKKELGGLHSAKILLYSVDFAEIEHYQASDDWAKSAEVLSQIAQKLEQAGADFIVICTNTMHKVAPQIQKQIAIPILHIAQATAEAILENGIQKV,not soluble
20,MTFQKHVAHTQPAKLATTPSPPGTATTPSLMSEDDDHRTITESQEKRRSWLERLSAAFSGDPHTLDDLMVILRSAEHHGIIATDTLRMMEGAIAIADLTVGDVMVPRSQMVSLPVESDLQTITKQMVESGHSRFPVHGENKDEVLGILLAKDLLRGVSANHTITNVHELLRPVGMIPESKKLNVLLKEFRLSHNHMAIVVDEYGGVAGLVTIEDILEQIVGDIDDEHDETEDQTNMIAIQADGCYIVDALTPIEDFNERFNAEFPDDDYDTIGGLVTEAIGHLPETGDELTIGRFAFRVAKANARRIHILHVTVLPPNEQNTA,not soluble
21,MSLEQELKLLFLRAHQRALSSLQFTEEAVDFLISCADGDARRLLNLLEQTKTACLTIKTAVVDVELLHNVIVQNSRRFDKGGEAFYDQISALHKSVRGSNPDAALYWLCRMLDGGVDPYYLARRIIRMSWEDIGLADPKAIQIANDAAATYERLGSPEGELALAQAVIYLSVAAKSNAGYVAFNQAMEFIKRDKSREVPIHLRNAPTQLMKKLGYGHEYRYAHDEPHGYAAGECYLPEGMPEVNWYNPVQRGLETKIAEKLAFLRQLDKDVKKEGHHHHHH,not soluble
22,MVAAWNRWDLSGIIKHWSPDIVHYSEDNEVSSADMVKLMEGGLKAFPDLQLEMKSIMAEEDRVALRITVTATHQGEFMGVQPTGQRVSWHLVEELRFVDGKVVEHWDVINMRPLLVRLGKLPDVPKVVLEASA,soluble
23,MPRRHSIVYAVEYDGDIYAITGITHETRNYLYKYIVKEDKWIELYMYFNHVGKTFVCSCGDYILIIADAKYEYYPKSNTWNLFDMSTRNIEYYDMFTKDETPKCN,not soluble
24,EASLTGAGATFPAPVYAKWADTYQKETGNKVNYQGIGSSGGVKQIIANTVDFGASDAPLSDEKLAQEGLFQFPTVIGGVVLAVNIPGLKSGELVLDGKTLGDIYLGKIKKWDDEAIAKLNPGLKLPSQNIAVVRRADGSGTSFVFTSYLAKVNEEWKNNVGTGSTVKWPIGLGGKGNDGIAAFVQRLPGAIGYVEYCYAKQNNLAYTKLISADGKPVSPTEENFANAAKGADWSKTFAQDLTNQKGEDAWPITSTTFILIHKDQKKPEQGTEVLKFFDWAYKTGAKQANDLDYASLPDSVVEQVRAAWKTNIKDSSGKPLY,soluble
25,MMHIAHSAPNHTVEGLYRAHNVWLTTWLRRRLGCPHSAADLAQDTFVKVLGARDTAQIIEPRAFLTTIAKRVLCNHYRRQDLERAYYQALAELPECAAPSEEERAIILETLVELDQLLDGLPALVKRAFLMSQVDGLSHGQIAAELDISIATVKRHLNKAALRCYFAL,not soluble

# From the DeepSol protein solubility set
